{
  "source": "patent US20100178296A1",
  "key": {"[1]": {"molecular_target": "fusion protein of the extracellular domain of the human inhibitory receptor CD200R fused to the Fc portion of human IgG1 (human) (UniProt Q8TD46)", "sequence (Q8TD46 other isoform, or with tags, fused parts or gaps limits assumed, form in doubt)": "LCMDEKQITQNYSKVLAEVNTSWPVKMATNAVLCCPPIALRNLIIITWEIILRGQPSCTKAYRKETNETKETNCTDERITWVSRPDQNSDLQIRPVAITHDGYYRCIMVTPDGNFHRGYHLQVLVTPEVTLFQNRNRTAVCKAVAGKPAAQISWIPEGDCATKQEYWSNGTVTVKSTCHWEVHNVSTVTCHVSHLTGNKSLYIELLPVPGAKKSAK", "test": "SPR (BIAcore 3000), fusion protein captured by anti-human Fc, antibody 0.82 to 600 nM, bivalent analyte model"}, "[2]": {"molecular_target": "fusion protein of the extracellular domain of the human inhibitory receptor CD200R fused to the Fc portion of human IgG1 (human) (UniProt Q8TD46)", "test": "SPR (BIAcore 3000), fusion protein captured by anti-human Fc, antibody at 133 and 13.3 nM, bivalent analyte model"}, "[3]": {"molecular_target": "human CD200R, full length, expressed on murine mast cells (DT762) (human) (UniProt Q8TD46)", "sequence (Q8TD46 other isoform, or with tags, fused parts or gaps limits assumed, form in doubt)": "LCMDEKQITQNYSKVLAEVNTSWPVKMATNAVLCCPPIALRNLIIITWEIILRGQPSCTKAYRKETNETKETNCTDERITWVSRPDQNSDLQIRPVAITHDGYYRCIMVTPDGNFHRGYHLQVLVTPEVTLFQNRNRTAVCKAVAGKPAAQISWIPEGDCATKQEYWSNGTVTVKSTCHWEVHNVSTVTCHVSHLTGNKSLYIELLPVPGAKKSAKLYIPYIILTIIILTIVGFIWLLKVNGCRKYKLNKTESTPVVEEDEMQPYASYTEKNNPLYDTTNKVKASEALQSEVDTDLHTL"}, "[4]": {"molecular_target": "fusion protein of the extracellular domain of the human inhibitory receptor CD200R fused to the Fc portion of human IgG1 (human) (UniProt Q8TD46)", "test": "KinExA, human CD200R-Ig in solution and on the particles"}},
  "data": [
    {"binder": "DX182, rat anti-human inhibitory CD200R monoclonal antibody (antibody, V domains shown) VL: EVQMTQSPSTLTASPGESVSINCKASKNIRSYLAWYQQKPGKPNKLLIYSGSTLHSGTPSRFSGSGFGTDFTLTIRNLEPEDFGLYYCQQHHEYPLTFGSGTKLEIKR VH: EIQLQESGPGLVKPSQSLSLTCSVTGYTITSGYDWSWIRKFPGNKMEWMGYINYGGSTNYKPSLGSRISITRDTSKNQFFLQLNSVSPEDTATYYCAKYNEYKSYIYDWYFDFWGPGTMVTVSS", "values": [
      {"measurement": "Kd", "setting": "[1]", "value": 0.76, "unit": "nM"},
      {"measurement": "Kd", "setting": "[2]", "value": 0.024, "unit": "nM"},
      {"measurement": "IC50 (read off the curve)", "setting": "[3]", "value": 0.2, "unit": "µg/mL"},
      {"measurement": "Kd", "setting": "[4]", "value": 0.056, "unit": "nM"}
    ]},
    {"binder": "DX184, rat anti-human inhibitory CD200R monoclonal antibody (antibody, V domains shown) VL: DIVMTQSPTFMSISVGDRVTMSCKASQNVGSNVDWYQQKTGQSPKLLIYKASNRYTGVPDRFTGSGSGTGFTFTITNLQAEDLAVYYCMQSLSFPYTSGAGT VH: QVQLKESGPGLVQPSQTLSLTCTVSGFSLTNNGVSWVRQPPGKGLEWIAAISSGGGTFYNSALKSRLSISRDTSKSQVFLKMNSLQTEDTAIYFCARDGDWDWYFDFWGPGTMVTVSS", "values": [
      {"measurement": "Kd", "setting": "[2]", "value": 1.93, "unit": "nM"},
      {"measurement": "Kd", "setting": "[4]", "value": 0.026, "unit": "nM"}
    ]},
    {"binder": "DX185, rat anti-human inhibitory CD200R monoclonal antibody (antibody, V domains shown) VH: EIQLQESGPGLVKPSQSFSLTCSVTGYTITSGYDWSWIRKFPGNRMEWMGYINYSGSTVYNPSLRSRFSITRDTSKNQFFLQLNSVASEDTATYYCAKFEASNTYLYDWYFDFWGPGTMVTVSS VL: DVQMTQSPSYLAASPGESVSISCKAGKNINTNLAWYQAKPGKTNKVLIHSGSTLQSGTPSRFSGSGFGTDFTLTIRSLEPEDFAVYYCQQHNEFPLTFGSGTKLEIKR", "values": [
      {"measurement": "Kd", "setting": "[2]", "value": 0.202, "unit": "nM"},
      {"measurement": "Kd", "setting": "[4]", "value": 0.126, "unit": "nM"}
    ]},
    {"binder": "DX178, rat anti-human inhibitory CD200R monoclonal antibody (antibody, V domains shown) VH: EIQLQESGPGLVKPSQSLSLTCSVTGFTITSGYDWSWIRKFPGNKMEWMGYIGFSGSTVYNPSLNSRISITRDTAKNQFFLQLNSVTTEDTATYHCAKSFVQNTFIYDWFFDFWGPGTMVTVSS VL: DVRMTQSPSNLAASPGESVSINCKASKNISKYLAWYQQKPGKANRLLICSGSTLQSGTPSRFSGSGFGTDFTLTIRNLEPEDFGLYYCQQHNEFPLTFGSGTKLEIKR", "values": [
      {"measurement": "Kd", "setting": "[2]", "value": 1.62, "unit": "nM"},
      {"measurement": "Kd", "setting": "[4]", "value": 0.628, "unit": "nM"}
    ]}
  ]
}
